How the values were obtained:
[1] = molecular target: AhlB (Aeromonas hydrophila strain AL09-71); assay: crystal structure
[2] = molecular target: AhlC (Aeromonas hydrophila strain AL09-71); assay: SEC; gel filtration of AhlC alone (Supplementary Fig. 2)
[3] = molecular target: AhlC (Aeromonas hydrophila strain AL09-71); assay: cross-linking; 1.4 mg/ml soluble AhlC with glutaraldehyde (15 min, room temperature), then EDC in 0.1 M MES pH 6 (30 min); SDS-PAGE
[4] = molecular target: AhlC (Aeromonas hydrophila strain AL09-71)
[5] = molecular target: AhlC (Aeromonas hydrophila strain AL09-71); assay: crystal structure; soluble AhlC, two crystal forms (P6(5)22, 2.35 A; P2(1), 2.6 A)
[6] = molecular target: AhlB (Aeromonas hydrophila strain AL09-71)

| Substance | stoichiometry N [1] | stoichiometry N [2] | stoichiometry N [3] | haemolysis with glutaraldehyde-cross-linked AhlC (mixture of monomeric and dimeric AhlC), reduction of lysis [4] [% reduction] | stoichiometry N [5] | haemolysis of horse erythrocytes by a 1:1 AhlB/AhlC mixture, 1 h, against lysis by osmotic shock with water [6] [%] |
| --- | --- | --- | --- | --- | --- | --- |
| AhlB (natural protein) | 10 |  |  |  |  |  |
| AhlC (natural protein) |  | 4 | 2 | 50 | 4 | 50 |
